# Data as given in PMC10605901, “Clinical Cases and the Molecular Profiling of a Novel Childhood Encephalopathy-Causing GNAO1 Mutation P170R” (Cells, 2023).
# B1: 3xHA-RGS19 (natural protein, UniProt P49795 1-217, looked up)
# chain: MPTPHEAEKQITGPEEADRPPSMSSHDTASPAAPSRNPCCLCWCCCCSCSWNQERRRAWQASRESKLQPLPSCEVCATPSPEEVQSWAQSFDKLMHSPAGRSVFRAFLRTEYSEENMLFWLACEELKAEANQHVVDEKARLIYEDYVSILSPKEVSLDSRVREGINKKMQEPSAHTFDDAQLQIYTLMHRDSYPRFLSSPTYRALLLQGPSQSSSEA
# notes: RGS19 (regulator of G-protein signaling 19); also called 3×HA-RGS19; RGS19 (tagged with 3 × HA); source: N2a cells, transfected, in lysate
# Biological target: T1, Gαo[P170R]^Gly92-GFP (human, UniProt P09471-1 1-354, P170R)
# T1 construct: Pathogenic de novo variant found in two patients; also called Gαo[P170R]-GFP; P170R mutant; source: N2a cells, transfected, in lysate; not shown: GFP, internal (after residue 92), kept
# T1 sequence (P09471 whole entry P170R): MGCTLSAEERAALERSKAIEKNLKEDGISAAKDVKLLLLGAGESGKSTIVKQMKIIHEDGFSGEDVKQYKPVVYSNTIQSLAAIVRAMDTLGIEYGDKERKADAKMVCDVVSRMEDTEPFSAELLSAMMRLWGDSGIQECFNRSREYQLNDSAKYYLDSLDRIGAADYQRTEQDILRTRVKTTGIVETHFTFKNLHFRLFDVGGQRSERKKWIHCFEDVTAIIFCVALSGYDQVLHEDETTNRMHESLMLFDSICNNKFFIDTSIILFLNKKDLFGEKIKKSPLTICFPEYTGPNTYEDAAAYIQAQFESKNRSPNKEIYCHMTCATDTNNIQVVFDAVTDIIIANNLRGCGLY
# Test: co-IP; N2a cells co-transfected with Gαo-GFP constructs and mRFP-Gβ1/mRFP-Gγ3 (1:1:1) or HA-RGS19 (1:1); cleared lysates (20 mM Tris-HCl pH 8.0, 1% Triton X-100, 10% glycerol in PBS) incubated with GST-tagged anti-GFP nanobody, then Glutathione Sepharose 4B beads overnight at 4 °C; Western blot for GFP, mRFP and/or HA; quantification normalized to the precipitated Gαo-GFP
# Settings: partners not purified
binder,measurement,value
B1,fold reduction of co-precipitated RGS19 against wild-type Gαo-GFP,> 2 fold
